Earlier results in publication PMC3044768.
pKd: −log10 of the molar value. Like-named read-outs stand apart in the source and are kept apart here.

How the values were obtained:
[1] = target: SARS 3CLpro 3CLpro (Severe acute respiratory syndrome coronavirus) (UniProt P0C6X7); conditions: cited from earlier work
[2] = target: SARS 3CLpro 3CLpro (Severe acute respiratory syndrome coronavirus) (UniProt P0C6X7); conditions: cited from earlier work; remark: listed apart in the source

SARS 3CLpro 3CLpro (from UniProt P0C6X7)
pKd [1]: 5.28 | pKd [2]: 4.90
